Reference: the supplement of paper PMC7125110
± gives the standard error. Fewer inactive variants are shown than the library holds.

B1: glmS ribozyme (parent)
chain: AUAAAAGCGCCAGAACUACAGAAAUGUAGUUGACGAGGAGGAGGUUUAUCGAAUUUUCGGCGGAUGCCUCCAAA

Key:
Conditions in all cases: with glucosamine-6-phosphate
glucosamine-6-phosphate [1] = variants of: B1; test: self-cleavage kobs at 40 uM GlcN6P; higher = faster cleavage; RNA array
Summary of the method: (§1)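 Barcoded ribozyme variants on sequenced MiSeq chips were transcribed in situ by E. coli RNA polymerase and followed at 37 °C through a hybridised Cy3 probe. Glucosamine-6-phosphate at 40 μM to 10 mM in HEPES/KCl/Mg(OAc)2 buffer was flowed in, and tiles were imaged over ~14 h. Signals were normalised to baseline and to non-cleaving reference variants, and per-tile medians were fit to one- or two-exponential decays to give kobs. Weighted Michaelis–Menten fits across concentrations gave kcat and KM.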

glucosamine-6-phosphate [2] = variants of: B1; test: self-cleavage kobs at 160 uM GlcN6P; higher = faster cleavage; RNA array
Summary of the method: as §1

glucosamine-6-phosphate [3] = variants of: B1; test: self-cleavage kobs at 640 uM GlcN6P; higher = faster cleavage; RNA array
Summary of the method: as §1

glucosamine-6-phosphate [4] = variants of: B1; test: self-cleavage kobs at 2500 uM GlcN6P; higher = faster cleavage; RNA array
Summary of the method: as §1

glucosamine-6-phosphate [5] = variants of: B1; test: self-cleavage kobs at 10000 uM GlcN6P; higher = faster cleavage; RNA array
Summary of the method: as §1

Row | Variant | self-cleavage kobs at 40 uM GlcN6P (glucosamine-6-phosphate [1]) [s⁻¹] | self-cleavage kobs at 160 uM GlcN6P (glucosamine-6-phosphate [2]) [s⁻¹] | self-cleavage kobs at 640 uM GlcN6P (glucosamine-6-phosphate [3]) [s⁻¹] | self-cleavage kobs at 2500 uM GlcN6P (glucosamine-6-phosphate [4]) [s⁻¹] | self-cleavage kobs at 10000 uM GlcN6P (glucosamine-6-phosphate [5]) [s⁻¹]
1 | U31C C70U | 0.000152 ± 1.5e-05 | 0.000343 ± 4.1e-05 | 0.000731 ± 6.7e-05 | 0.00284 ± 0.00074 | 
2 | G32U G63U | < 1e-05 |  |  | < 1e-05 | < 1e-05
3 | U31C G51U | < 1e-05 |  |  |  | < 1e-05
4 | U31C G51C | < 1e-05 |  |  | < 1e-05 | < 1e-05
5 | U31A G62C | < 1e-05 | < 1e-05 |  | < 1e-05 | < 1e-05
6 | C34G A64G | < 1e-05 | < 1e-05 | < 1e-05 | < 1e-05 | < 1e-05
7 | G32U C58G G60U | < 1e-05 |  |  |  | 
8 | U31G G43C | < 1e-05 | < 1e-05 | < 1e-05 | < 1e-05 | 
9 | U31C U56G | 0.000154 ± 1.9e-05 | 0.000413 ± 9.2e-05 | 0.000899 ± 0.00013 | 0.00194 ± 0.0003 | 0.00757 ± 0.00091
10 | G32U A42U C58U | < 1e-05 |  |  |  | 3.73e-05 ± 1.3e-05
11 | A33U G62C | < 1e-05 |  | < 1e-05 |  | 
12 | U31C U69C | 4.67e-05 ± 1.5e-05 | 5.62e-05 ± 1.5e-05 | 0.000232 ± 6.2e-05 | 0.00045 ± 8.2e-05 | 0.0013 ± 0.00035
13 | A33C G63U | < 1e-05 |  | < 1e-05 | < 1e-05 | < 1e-05
14 | A33C G63C | < 1e-05 | < 1e-05 |  | < 1e-05 | < 1e-05
15 | U31C G44A C71U | < 1e-05 | < 1e-05 | < 1e-05 |  | 
16 | A33U A48U | < 1e-05 | < 1e-05 | < 1e-05 |  | < 1e-05
17 | C34A G43C | < 1e-05 | < 1e-05 | < 1e-05 |  | < 1e-05
18 | C34A U56C G63A | < 1e-05 |  |  |  | < 1e-05
19 | C34A A48C | < 1e-05 |  |  | < 1e-05 | < 1e-05
20 | C34A G51A | < 1e-05 | < 1e-05 |  | < 1e-05 | 
21 | A33G G66A | < 1e-05 | < 1e-05 |  |  | < 1e-05

Row | Variant | self-cleavage kobs at 40 uM GlcN6P (glucosamine-6-phosphate [1]) [s⁻¹] | self-cleavage kobs at 160 uM GlcN6P (glucosamine-6-phosphate [2]) [s⁻¹] | self-cleavage kobs at 640 uM GlcN6P (glucosamine-6-phosphate [3]) [s⁻¹] | self-cleavage kobs at 2500 uM GlcN6P (glucosamine-6-phosphate [4]) [s⁻¹] | self-cleavage kobs at 10000 uM GlcN6P (glucosamine-6-phosphate [5]) [s⁻¹]
22 | U31C G60A | < 1e-05 |  | < 1e-05 |  | < 1e-05
23 | U31C G60C | < 1e-05 |  |  |  | < 1e-05
24 | A33G U45C | < 1e-05 |  | < 1e-05 | < 1e-05 | 
25 | U30G G62A | < 1e-05 | < 1e-05 | < 1e-05 |  | < 1e-05
26 | U31A U56A | 0.000218 ± 3.2e-05 |  | 0.00221 ± 0.00061 | 0.00123 ± 0.0005 | 0.00967 ± 0.0011
27 | U31A G35C A36U | < 1e-05 |  | < 1e-05 |  | < 1e-05
28 | G32A G37C A42U | < 1e-05 |  |  |  | 
29 | G32U G62A | < 1e-05 |  | < 1e-05 | < 1e-05 | < 1e-05
30 | C34A U56C | < 1e-05 |  | < 1e-05 | < 1e-05 | < 1e-05
31 | A33U C67G | < 1e-05 | < 1e-05 | < 1e-05 |  | 
32 | C34G G37A G44C C50G A53G G66U | < 1e-05 |  |  |  | < 1e-05
33 | A33U A64C | < 1e-05 | < 1e-05 | < 1e-05 |  | < 1e-05
34 | A33C A36G G40A | < 1e-05 |  | < 1e-05 | < 1e-05 | < 1e-05
35 | U31G G44A | < 1e-05 |  |  | 5.95e-05 ± 2.1e-05 | 9.7e-05 ± 2.6e-05
36 | C34A G44A | < 1e-05 | < 1e-05 | < 1e-05 | < 1e-05 | < 1e-05
37 | G32A A48C | < 1e-05 | < 1e-05 |  |  | 
38 | G32A G59C | < 1e-05 | < 1e-05 | < 1e-05 | < 1e-05 | 
39 | G32A U47G U57G | < 1e-05 |  |  |  | 
40 | A33U C34U G60U | < 1e-05 |  |  |  | 
41 | A33G G40C U56G | < 1e-05 |  |  |  | 
42 | G32C A64C | < 1e-05 | < 1e-05 |  | < 1e-05 | < 1e-05
